This is an account of results in patent publication US20230087128A1 (KEROS THERAPEUTICS, published 2023).

Residue numbers refer to the chain shown, from its start.

The chains are these.
T1: Activin B (UniProt P09529 293-407)
T1 sequence (looked up): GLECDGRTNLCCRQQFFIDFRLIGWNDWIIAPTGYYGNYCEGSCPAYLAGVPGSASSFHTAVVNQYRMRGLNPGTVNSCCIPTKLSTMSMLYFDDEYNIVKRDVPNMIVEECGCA

T2: Activin A (UniProt P08476 311-426)
T2 sequence (looked up): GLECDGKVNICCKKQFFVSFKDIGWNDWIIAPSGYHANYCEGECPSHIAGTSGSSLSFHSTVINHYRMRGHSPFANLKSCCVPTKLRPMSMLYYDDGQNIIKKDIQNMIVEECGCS

T3: BMP-9, Q9UK05
T3 chain: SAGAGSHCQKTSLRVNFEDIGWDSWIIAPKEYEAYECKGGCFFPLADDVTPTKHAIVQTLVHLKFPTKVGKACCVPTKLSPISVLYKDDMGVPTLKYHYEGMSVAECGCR

B1: ActRIIB/A variant (SEQ ID NO: 2)-Fc (Fc fusion, not shown: a dimerising Fc or GST)
chain: GRGEAETRECIFYNANWEKDRTNQSGLEPCYGDQDKRRHCFASWKNSSGTIELVKQGCWLDDINCYDRQECVAKKDSPEVYFCCCEGNFCNERFTHLPEAGGPEVTYEPPPTAPT
notes: Engineered variant of the human ActRIIB extracellular portion; expressed transiently in HEK293 and Protein A purified (SPR); conditioned media in the reporter assay; also called ActRIIB/A-Fc
B2: ActRIIB (SEQ ID NO: 17)-Fc (Fc fusion, not shown: a dimerising Fc or GST)
chain: GRGEAETRECIYYNANWELERTNQSGLERCEGEQDKRLHCYASWRNSSGTIELVKKGCWLDDFNCYDRQECVATEENPQVYFCCCEGNFCNERFTHLPEAGGPEVTYEPPPTAPT
notes: Recombinant wild-type extracellular ActRIIB-Fc; also called ActRIIB-Fc
B3: ActRIIB 2.11 variant (SEQ ID NO: 14)-Fc (Fc fusion, not shown: a dimerising Fc or GST)
chain: B2 chain with I11L, L27V, Q34K, T50S, I51L, L53I, Q69T, E70D, E75K, F89M
notes: Engineered variant of the human ActRIIB extracellular portion; recombinant protein
B4: ActRIIBΔ9 variant (SEQ ID NO: 3)-Fc (Fc fusion, not shown: a dimerising Fc or GST)
chain: B2 chain with E20D, F63I, E75K
notes: Engineered variant of the human ActRIIB extracellular portion
B5: ActRIIB 2.09 variant (SEQ ID NO: 12)-Fc (Fc fusion, not shown: a dimerising Fc or GST)
chain: B2 chain with I11L, L27V, Q34K, T50S, I51L, L53I, Q69T, E70D, F89M
notes: Engineered variant of the human ActRIIB extracellular portion; also called ActRIIB variant 2.09-hFc
B6: ActRIIB 2.12 variant (SEQ ID NO: 15)-Fc (Fc fusion, not shown: a dimerising Fc or GST)
chain: B2 chain with I11L, L27V, Q34K, T50S, I51L, L53I, Q69D, E70T, E75K, F89M
notes: as for B3
B7: ActRIIB 2.06 variant (SEQ ID NO: 9)-Fc (Fc fusion, not shown: a dimerising Fc or GST)
chain: B1 chain with F12Y, K19L, D20E, P29R, Y31E, D33E, R38L, I63F
notes: Engineered variant of the human ActRIIB extracellular portion; recombinant protein; also called ActRIIB variant 2.06-hFc
B8: ActRIIB 2.10 variant (SEQ ID NO: 13)-Fc (Fc fusion, not shown: a dimerising Fc or GST)
chain: B2 chain with I11L, L27V, Q34K, T50S, I51L, L53I, Q69D, E70T, F89M
notes: Engineered variant of the human ActRIIB extracellular portion; also called ActRIIB variant 2.10-hFc
B9: growth differentiation factor 11 (GDF11) (ligand, UniProt O95390 299-407, looked up)
chain: NLGLDCDEHSSESRCCRYPLTVDFEAFGWDWIIAPKRYKANYCSGQCEYMFMQKYPHTHLVQQANPRGSAGPCCTPTKMSPINMLYFNDKQQIIYGKIPGMVVDRCGCS
B10: BMP-9 (ligand, UniProt Q9UK05 320-429, looked up)
chain: T3 chain
notes: also called bone morphogenetic protein 9
B11: ActRIIB 2.05 variant (SEQ ID NO: 8)-Fc (Fc fusion, not shown: a dimerising Fc or GST)
chain: B2 chain with E31Y, E33D, Q34K, T74K, E75K, E76D, N77S, Q79E
notes: as for B4

The target of one experiment is T1, Activin B. Put plainly: SPR (Biacore 3000), Fc fusion captured, ligand in solution.
Conditions: not given
An excerpt: (§1) The GE Biacore 3000 was used to measure the kinetics of the interactions between the ActRIIB-Fc variants and the ligands Activin A, Activin B, growth differentiation factor 11 (GDF11), and BMP-9. […] All other ActRIIB-Fc variants were expressed by transient expression in HEK293 cells and purified from the conditioned media using Protein-A Sepharose chromatography. Flow cells 1-4 were immobilized with anti-human/anti-mouse capture antibodies from GE using the amine coupling kit. The ActRII-Fc proteins were then captured on the chip in flow cells 2-4, with flow cell 1 being left empty as a reference cell to measure and subtract any nonspecific binding. HBS-EP+ buffer from GE Healthcare™ was used as a running buffer. Each ligand was run in a duplicate concentration series at 40 μl/min to avoid mass transport effects. All data was collected on a CM-5 chip except for GDF-11, which used CM-4. The data was analyzed using Scrubber2 by BioLogic™ Software to calculate the KD of each interaction (Table 4).
Take B1: the binding result was “no binding”.
B2 yielded a Kd of 0.023 nM.
Still for that read-out and setting: for B3 the value was 0.37 nM.
Same read-out and setting: with B4 the figure was 400 nM; with B5, 0.16 nM.
Turning to B6, the Kd is 0.16 nM.
Same read-out and setting: with B7 the figure was 0.1 nM; with B8, 0.28 nM.

For another experiment, the target named is B2. The experiment is described as above.
Conditions: not given
From the text: as §1
In turn, B9 had a Kd of 0.12 nM.
B10 registered a Kd of 0.28 nM.

The next experiment concerns the target B9. The description is as above.
Conditions: not given
From the text: as §1
For B1, the binding result is given as “no binding”.
In the case of B3, the Kd turned out to be 0.24 nM.
Consider B4, for which binding was characterised by a dissociation constant (Kd) of 530 nM.
Regarding B6, the Kd is 0.13 nM.
In the case of B7, the Kd amounted to 0.027 nM.

In a further experiment the target is T2, Activin A. Described as above.
Conditions: not given
From the text: as §1
With B1, the binding result was “no binding”.
As for B2, binding was characterised by a dissociation constant (Kd) of 0.063 nM.
B3 had a Kd of 0.78 nM.
In turn, B4 had a Kd of 390 nM.
Consider B5, for which binding was characterised by a dissociation constant (Kd) of 0.1 nM.
Still for that read-out and setting: for B6 the value was 0.14 nM; for B7, 0.053 nM.
B8: the Kd stood at 0.45 nM.

Another experiment addresses B10. Described as above.
Conditions: not given
From the text: as §1
B3 had a Kd of 2.7 nM.
Consider B4, for which the Kd amounted to 28 nM.
In turn, B5 had a Kd of 0.44 nM.
As to B11, the binding result is “no binding”.
As to B6, binding was put at a Kd of 31 nM.
B7 returned a dissociation constant (Kd) of 0.3 nM.
On to B8, for which binding was put at a Kd of 1.7 nM.

Another experiment deals with T3, BMP-9, Q9UK05. The description is as above. The conditions noted are these: remark: other sources report otherwise.
Turning to B1, the Kd came to 88 nM.
